Experimental data published in paper PMC5135098, “Attenuation of Quorum Sensing Regulated Virulence of Pectobacterium carotovorum subsp. carotovorum through an AHL Lactonase Produced by Lysinibacillus sp. Gs50” (PLoS ONE, 2016).

Test system: CCCCCC(=O)NC1CCOC1=O
Experiment: purified protein
Settings: pH 8.0, 50 mM Tris-Cl, 35°C (methods: 30°C, 2 h for saturation curve), no added metal

## AdeH (Lysinibacillus sp. Gs50)
  Km: 3.089 µM
